By Kd is commonly meant the concentration at which binding is half-saturated.

Where no end group is shown, it is not given here.

For experiment [1], the target named is T1, TAZ1 domain of CBP (residues 340-439 of mouse CBP) (mouse, UniProt P45481 340-439). The experiment can be described thus: fluorescence polarisation. Background: Polarisation of emitted light reports the rotation of a fluorescent probe.
For experiment [2], the target named is T1, TAZ1 domain of CBP (residues 340-439 of …). As to the kind of experiment: fluorescence polarisation + BLI.
Experiment [3] shares this target. As to the kind of experiment: fluorescence polarisation. This is another data set of the same source.
Experiment [4] has the same target. The experiment can be described thus: stopped-flow fluorescence.

T1 sequence (P45481 340-439): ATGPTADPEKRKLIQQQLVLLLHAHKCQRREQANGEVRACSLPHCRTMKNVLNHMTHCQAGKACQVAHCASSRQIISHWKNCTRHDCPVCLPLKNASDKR

B1: HIF-1α 776-826 C800V labeled with Alexa Fluor 594 at position 780 (peptide, UniProt Q16665 776-826, looked up)
chain: SDLAC(Alexa Fluor 594)RLLGQSMDESGLPQLTSYDVEVNAPIQGSRNLLQGEELLRALDQVN
With B1, the binding result in experiment [1] is “binds”.

B2: HIF-1α C-terminal transactivation domain peptide (residues 776-826) (peptide, UniProt Q16665 776-826, looked up)
chain: SDLACRLLGQSMDESGLPQLTSYDCEVNAPIQGSRNLLQGEELLRALDQVN
Turning to B2, the “apparent Kd (displacing labeled HIF-1α from TAZ1)” value in experiment [1] was found to be 10 ± 1 nM. Besides, the Kd in experiment [2] came to 10 nM.

B3: CITED2 216-269 labeled with Alexa Fluor 594 at Cys 261 (peptide, UniProt Q99967 216-269, looked up)
chain: NVIDTDFIDEEVLMSLVIEMGLDRIKELPELWLGQNEFDFMTDFVC(Alexa Fluor 594)KQQPSRVS
Consider B3, for which the binding result in experiment [3] is recorded as “binds”.

B4: CITED2 transactivation domain peptide (residues 216-269) (peptide, UniProt Q99967 216-269, looked up)
chain: NVIDTDFIDEEVLMSLVIEMGLDRIKELPELWLGQNEFDFMTDFVCKQQPSRVS
As to B4, in experiment [2], the Kd came out at 10 nM.

B5: HIF-1α 776-826 C800V labeled with Alexa Fluor 488 at position 780 (peptide, UniProt Q16665 776-826, looked up)
chain: SDLAC(Alexa Fluor 488)RLLGQSMDESGLPQLTSYDVEVNAPIQGSRNLLQGEELLRALDQVN
For B5, the binding result in experiment [4] is “binds”.

Values taken from article PMC5375031 (Nature, 2017).
